In article PMC4288177:

Tests used:
DnaA (AaDnaA, truncated) [1] = molecular target: T1, DnaA (AaDnaA, truncated) (Aquifex aeolicus, UniProt O66659 77-399); test: smPIFE
T1 sequence: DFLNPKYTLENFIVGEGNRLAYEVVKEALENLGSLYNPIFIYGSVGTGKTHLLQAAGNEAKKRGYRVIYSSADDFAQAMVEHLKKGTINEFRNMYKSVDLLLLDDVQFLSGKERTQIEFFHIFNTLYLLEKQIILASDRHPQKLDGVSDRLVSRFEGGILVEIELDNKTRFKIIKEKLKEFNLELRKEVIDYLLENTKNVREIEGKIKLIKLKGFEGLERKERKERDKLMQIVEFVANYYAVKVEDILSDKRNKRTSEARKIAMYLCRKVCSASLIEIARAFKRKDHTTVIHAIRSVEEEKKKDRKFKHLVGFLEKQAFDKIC

DnaA (AaDnaA, truncated) [2] = molecular target: T1, DnaA (AaDnaA, truncated); test: smPIFE; remark: listed apart in the source
DnaA (AaDnaA, truncated) [3] = molecular target: T1, DnaA (AaDnaA, truncated); test: smPIFE; remark: listed apart in the source
DnaA (AaDnaA, truncated) [4] = molecular target: T1, DnaA (AaDnaA, truncated); test: smFRET
DnaA (AaDnaA, truncated) [5] = molecular target: T1, DnaA (AaDnaA, truncated); test: smPIFE; remark: listed apart in the source
DnaA (AaDnaA, truncated) [6] = molecular target: T1, DnaA (AaDnaA, truncated); test: smPIFE; remark: listed apart in the source

B1: 5'-OP21 (Cy3 only) (mixed)
DNA 1: TTTTTTTTTTTTTTTTTTTTTCGGAGCGACGGCAGCGGT
DNA 2: ACCGCTGCCGTCGCTCCG
- binding result (DnaA (AaDnaA, truncated) [1]): binds

B2: 3'-OP21 (Cy3 only) (mixed)
DNA 1: B1 DNA 1
DNA 2: ACCGCTGCCGTCGCTCCG
modifications: C6-amino-dT at position 21
- binding result (DnaA (AaDnaA, truncated) [2]): binds

B3: pdT21 (Cy3 only, PIFE) (mixed)
DNA 1: TGGCGACGGCAGCGAGGCTTTTTTTTTTTTTTTTTTTTT
DNA 2: GCCTCGCTGCCGTCGCCA
- binding result (DnaA (AaDnaA, truncated) [3]): binds

B4: pdT21 (mixed)
DNA 1: B3 DNA 1
DNA 2: GCCTCGCTGCCGTCGCCA
- binding result (DnaA (AaDnaA, truncated) [4]): binds

B5: pdT3+17 (Cy3 only) (mixed)
DNA 1: B3 DNA 1
DNA 2: GCCTCGCTGCCGTCGCCA
modifications: C6-amino-dT at position 22
- binding result (DnaA (AaDnaA, truncated) [5]): binds

B6: pdTcontrol (Cy3 only) (mixed)
DNA 1: B3 DNA 1
DNA 2: GCCTCGCTGCCGTCGCCA
modifications: C6-amino-dT at position 19
- binding result (DnaA (AaDnaA, truncated) [6]): binds
